Biological target: GFP-β1-integrin (UniProt P05556)
Test: co-IP; GFP-Trap capture of GFP-β1-integrin (or GFP alone) from MEFs spread on 50K-coated dishes, unstimulated or stimulated with H/0 for 10 min, cross-linked with DTBP; western blotting

Chain of UniProt P05556 (P05556 21-798): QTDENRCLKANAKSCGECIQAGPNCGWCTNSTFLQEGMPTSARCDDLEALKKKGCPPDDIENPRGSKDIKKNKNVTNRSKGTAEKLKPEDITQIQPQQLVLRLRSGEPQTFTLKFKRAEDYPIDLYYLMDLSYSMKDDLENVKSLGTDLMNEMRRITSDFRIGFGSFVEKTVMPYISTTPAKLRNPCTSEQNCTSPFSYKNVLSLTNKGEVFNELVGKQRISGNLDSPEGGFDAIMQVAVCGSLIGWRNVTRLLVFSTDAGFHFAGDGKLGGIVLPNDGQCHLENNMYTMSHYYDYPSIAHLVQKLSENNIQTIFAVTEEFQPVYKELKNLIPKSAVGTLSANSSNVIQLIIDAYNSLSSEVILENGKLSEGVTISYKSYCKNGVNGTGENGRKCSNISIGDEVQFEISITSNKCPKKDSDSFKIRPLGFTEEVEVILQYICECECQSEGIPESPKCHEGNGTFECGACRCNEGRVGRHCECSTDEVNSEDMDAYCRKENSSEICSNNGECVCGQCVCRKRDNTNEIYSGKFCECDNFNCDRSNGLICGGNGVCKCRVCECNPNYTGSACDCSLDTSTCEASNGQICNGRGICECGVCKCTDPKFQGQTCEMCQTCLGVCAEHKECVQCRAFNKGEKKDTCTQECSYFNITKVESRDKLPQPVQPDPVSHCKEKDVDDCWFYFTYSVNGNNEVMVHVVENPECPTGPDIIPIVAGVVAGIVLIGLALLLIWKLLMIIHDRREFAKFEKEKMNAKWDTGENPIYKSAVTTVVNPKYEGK
Chain of RhoGDI (Q99PT1 whole entry): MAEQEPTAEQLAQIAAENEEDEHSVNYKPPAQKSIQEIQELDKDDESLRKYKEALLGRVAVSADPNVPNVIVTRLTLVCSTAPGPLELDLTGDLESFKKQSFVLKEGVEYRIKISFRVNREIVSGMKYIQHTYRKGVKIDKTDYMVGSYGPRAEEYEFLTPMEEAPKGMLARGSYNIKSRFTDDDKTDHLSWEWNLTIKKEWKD

Substance: RhoGDI (from UniProt Q99PT1 1-204) (natural protein)
- reduction in bound RhoGDI after 10 min H/0 stimulation, against unstimulated cells: 46%

Reference: PMC3202633
